The test has as its target Gal-CBP1-2441 chimera (yeast) (UniProt P45481). Put plainly: cell-based or functional assay.

“SRCAP1275-2971 (from UniProt Q6ZRS2 1534-3230)” registered an ability of Gal-CBP to activate transcription of pGal-CAT of 2.5 fold.

Values taken from patent US6365372.
